# B1: Twister Ribozyme (parent)
# chain: AACACUGCCAAUGCCGGUCCCAAGCCCGGAUAAAAGUGGAGGGGGCGG
# Variants of: B1
# Test: self-cleavage, relative activity (ratio to wild type); higher = more cleavage; co-transcriptional
row,Variant,self-cleavage
1,AACACAGCCAAUGCCGGUCCCAAGCCCGGAUGAAAGUGGAGGGGGCGG,0.987
2,AACACAGCCAAUGCCGGUCCCAAGCCCGGAUUAAAGUGGAGGGGGCGG,0.862
3,AACACAGCCAAUGCCGGUCCCAAGCCCGGAUAAAAGUGGAGGGGGGGG,0.988
4,AACACAGCCAAUGCCGGUCCCAAGCCCGGAUAAAAGUGGAGGGGGAGG,0.809
5,AACACAGCCAAUGCCGGUCCCAAGCCCGGAUAAAAGUGGAGGGGGUGG,1.04
6,AACACAGCCAAUGCCGCUCCCAAGCCCGGAUAAAAGUGGAGGGGGCGG,0.0763
7,AACACAGCCAAUGCCGAUCCCAAGCCCGGAUAAAAGUGGAGGGGGCGG,0.181
8,AACACACCCAAUGCCGGUCCCAAGCCCGGAUAAAAGUGGAGGGGGCGG,0.234
9,AACACCGCCAAUGCCGGUCCCAUGCCCGGAUAAAAGUGGAGGGGGCGG,0.0534
10,AACACAGCCAAUGCCGGUCCCAAGCCCGGAUAAAAGUGGUGGGGGCGG,0.116
11,AACACAGCCAAUGCCGGUCCCAAGCCCGGUUAAAAGUGGAGGGGGCGG,0.981
12,AACACCGCUAAUGCCGGUCCCAAGCCCGGAUAAAAGUGGAGGGGGCGG,0.0507
13,AACACCGCGAAUGCCGGUCCCAAGCCCGGAUAAAAGUGGAGGGGGCGG,0.122
14,AACACAGCCAAUGCCGGUCCCAAGCCCGGAUAAAAGUGGAGGGUGCGG,0.925
15,AACACAGCCAAUGCCGGUCCCAAGCCCGGAUAAAAGUGGAGGGAGCGG,0.943
16,AACACAGCCAAUGCCGGUCCCAAGCCCGGAUAAAAGUGGAGGGCGCGG,0.874
17,AACACAGCCAAUGCCGGUCCCAAGCCCGGAUAAAAGCGGAGGGGGCGG,0.124
18,AACACAGCCAAUGCCGGUCCCAAGCCCGGAUAAAAGGGGAGGGGGCGG,0.328
19,AACACAGCCAAUGGCGGUCCCAAGCCCGGAUAAAAGUGGAGGGGGCGG,0.124
20,AACACAGCCAAUGCCGGUCCCAAGCCCAGAUAAAAGUGGAGGGGGCGG,0.616
21,AACACAGCCAAUGCCGGUCCCAAGCCCCGAUAAAAGUGGAGGGGGCGG,0.524
22,AACACCGCCAAUGCCGGUCCCAAGCCCGGAUAAAAGUGGAGGGGGAGG,0.65
23,AACACAGCCAAUGCCGGUCCCAAGCCCGGAUAAAAGUUGAGGGGGCGG,0.188
24,AACACAGCCAAUGCCGGUCCCAAGCCCGGAUAAAAGUAGAGGGGGCGG,0.738
25,AACACAGCCAAUGCCGGUCCCAAGCCCGGAUAAAAGUCGAGGGGGCGG,0.594
26,AACACCGCCAAUGCCGGUCCCAAGCCCGGAUAAAAGUGGGGGGGGCGG,0.0788
27,AACACAGCCAAUGCCGGUCCCAAGCCCGGAUAAAAGUGGAGGGGGCGA,0.76

row,Variant,self-cleavage
1,AACACAGCCAAUGCCGGUCCCAAGCCCGGAUAAAAGUGGAGGGGGCGU,0.782
2,AACAUUGCCAAUGCCGGUCCCAAGCCCGGAUAAAAGUGGAGGAGGCGG,0.141
3,AACAUUGCCAAUGCCGGCCCCAAGCCCGGAUAAAAGUGGAGGGGGCGG,0.24
4,AACACCGCCAAUGCCGGUCCUAAGCCCGGAUAAAAGUGGAGGGGGCGG,0.0537
5,AACACCGCCAAUGCCGGUCACAAGCCCGGAUAAAAGUGGAGGGGGCGG,0.0292
6,AACACCGCCAAUGCCGGUCUCAAGCCCGGAUAAAAGUGGAGGGGGCGG,0.169
7,AACACAGCCAAUGCCGGUCCCAAGCCCGGAUAAACGUGGAGGGGGCGG,1.04
8,AACACCGCCAAUGCCGGUCCCAAGCCAGGAUAAAAGUGGAGGGGGCGG,0.0694
9,AACACCGCCAAUGCCGGUCCCAAGCCCGGAUACAAGUGGAGGGGGCGG,0.12
10,AACACCGCCAAUGCCGGUCCCAAGCCCGGAUAUAAGUGGAGGGGGCGG,0.319
11,AACACAGCCAAUGCCGGUCCCAAGCCCGGAUAAAAGUGGAGGAGGCGG,0.223
12,AACAUUGCCAAUGCCGGUCCCAAGCCCGGAUAAAAGUGGAGGGGGCGC,0.883
13,AACACAGCCAAUGCCGGUCCCAAGCCCGGAUAGAAGUGGAGGGGGCGG,0.881
14,AACACAGCCAAAGCCGGUCCCAAGCCCGGAUAAAAGUGGAGGGGGCGG,1.13
15,AACACCACCAAUGCCGGUCCCAAGCCCGGAUAAAAGUGGAGGGGGCGG,0.0638
16,AACACAGCCAAUGCCGGUCCCAAGCCCGGAUAAAAGUGGAGCGGGCGG,0.291
17,AACACAGCCAAUGCCGGUCCCAAGCCCGGAUAAAAGUGAAGGGGGCGG,0.255
18,AACACAGCCAAUGCCGGUCCCAAGCCCGGAUAAAAGUGCAGGGGGCGG,0.183
19,AACACCGCCAAUGCCGGUCCCAAGCCCGGAUGAAAGUGGAGGGGGCGG,0.518
20,AACACCGCCAAUGCCGGUCCCAAGCCCGGAUAAAAGUGGAGGGGGCGG,0.596
21,AACACAGCCAAUGCCGGUCCCAAGCCCGGAUAAAAGUGGAGGGGGCGG,1.03
22,AACACCGCCAGUGCCGGUCCCAAGCCCGGAUAAAAGUGGAGGGGGCGG,0.535
23,AACACCGCCAUUGCCGGUCCCAAGCCCGGAUAAAAGUGGAGGGGGCGG,0.673
24,AACACCGCCACUGCCGGUCCCAAGCCCGGAUAAAAGUGGAGGGGGCGG,0.292
25,AACAUUGCCAAUGCCGGUCCCAAGCCCGGAUAAAAGUGGAGUGGGCGG,0.134
26,AACAUUGCCAAUGCCGGUCCCAAGCCCGGAUAAAAGUGGAGGGCGCGG,0.864
27,AACACAGCCAAUGCCGGACCCAAGCCCGGAUAAAAGUGGAGGGGGCGG,0.174

# Source: the RNAGym collection of RNA variant scans (doi:10.7554/elife.80360)
